Measurements as given in patent publication US20040265963A1.

Key:
[1] = molecular target: Recombinant human JAK2 immobilized on agarose beads (human), O60674; assay: cell-based or functional assay
[2] = molecular target: T1, biotinylated phosphorylated JAK2 WT peptide (p-JAK2 WT) (human (the JAK2 WT sequence is the same for both mice and humans)); assay: solid phase binding assay, biotinylated peptide on immobilized Tkip (FIG. 4)
T1 chain: LPQDKEYYKVKEP

Chain of Recombinant human JAK2 immobilized on agarose beads (human), O60674 (O60674 whole entry): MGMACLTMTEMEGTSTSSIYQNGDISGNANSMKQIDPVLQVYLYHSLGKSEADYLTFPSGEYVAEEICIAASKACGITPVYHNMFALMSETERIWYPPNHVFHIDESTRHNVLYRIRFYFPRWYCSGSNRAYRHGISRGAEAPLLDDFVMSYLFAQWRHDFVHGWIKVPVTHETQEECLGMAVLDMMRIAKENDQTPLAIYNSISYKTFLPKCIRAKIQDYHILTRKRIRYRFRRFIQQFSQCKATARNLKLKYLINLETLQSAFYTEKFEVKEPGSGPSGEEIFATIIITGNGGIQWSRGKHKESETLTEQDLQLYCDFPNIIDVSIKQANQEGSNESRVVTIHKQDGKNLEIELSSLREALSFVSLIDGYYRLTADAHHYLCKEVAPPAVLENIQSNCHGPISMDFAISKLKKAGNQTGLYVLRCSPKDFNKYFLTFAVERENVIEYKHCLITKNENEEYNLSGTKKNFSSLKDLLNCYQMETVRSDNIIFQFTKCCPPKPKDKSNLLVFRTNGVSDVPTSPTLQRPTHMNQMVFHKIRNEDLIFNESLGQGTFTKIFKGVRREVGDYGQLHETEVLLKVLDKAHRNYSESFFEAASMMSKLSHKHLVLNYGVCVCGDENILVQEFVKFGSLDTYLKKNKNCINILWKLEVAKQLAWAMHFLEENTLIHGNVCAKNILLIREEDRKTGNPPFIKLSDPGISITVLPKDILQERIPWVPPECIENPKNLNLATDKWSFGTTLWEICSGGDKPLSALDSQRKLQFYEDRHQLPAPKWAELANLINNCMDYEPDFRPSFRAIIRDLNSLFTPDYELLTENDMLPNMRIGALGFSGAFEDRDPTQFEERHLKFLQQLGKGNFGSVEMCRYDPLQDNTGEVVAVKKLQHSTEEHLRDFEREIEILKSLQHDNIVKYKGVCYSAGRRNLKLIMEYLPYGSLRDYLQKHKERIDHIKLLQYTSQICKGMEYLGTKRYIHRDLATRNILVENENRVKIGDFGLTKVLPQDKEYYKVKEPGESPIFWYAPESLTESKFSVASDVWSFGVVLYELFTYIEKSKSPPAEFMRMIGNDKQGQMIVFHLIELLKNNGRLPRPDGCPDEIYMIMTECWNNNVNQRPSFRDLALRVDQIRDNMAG

Binder: WLVFFVIFYFFR (modifications not checked) [Tkip (tyrosine kinase inhibitor peptide), …]
- inhibition of 32P incorporation into JAK2/IFNGR-1 (Tkip at 50 µM) [1]: > 95%
- fold lower fifty percent endpoint concentration against unphosphorylated JAK2 WT [2]: 9 fold
